We go through one substance from patent publication US20160136236A1.

Experiment [1] has as its target wild type (WT) human low density lipoprotein receptor (LDLR) (human) (UniProt P01130). Put plainly: flow cytometry competition; 0.5 ug/mL LDL-BODIPY with 0 ug/mL unlabeled LDL on HEK293 cells transfected with LDLR mRNA. Background: In flow cytometry, cells or beads pass a laser one at a time.
Experiment [2] has the same target. As to the kind of experiment: flow cytometry competition; 0.5 ug/mL LDL-BODIPY with 1 ug/mL unlabeled LDL on HEK293 cells transfected with LDLR mRNA.
Experiment [3] shares this target. Put plainly: flow cytometry competition; 0.5 ug/mL LDL-BODIPY with 10 ug/mL unlabeled LDL on HEK293 cells transfected with LDLR mRNA.
The target is the same in experiment [4]. Put plainly: flow cytometry competition; 0.5 ug/mL LDL-BODIPY with 0.1 ug/mL unlabeled LDL on HEK293 cells transfected with LDLR mRNA.
The target is the same in experiment [5]. Put plainly: flow cytometry competition; 0.5 ug/mL LDL-BODIPY with 0.5 ug/mL unlabeled LDL on HEK293 cells transfected with LDLR mRNA.
Experiment [6] shares this target. Put plainly: flow cytometry competition; 0.5 ug/mL LDL-BODIPY with 100 ug/mL unlabeled LDL on HEK293 cells transfected with LDLR mRNA.
Experiment [7] shares this target. Put plainly: flow cytometry competition; 0.5 ug/mL LDL-BODIPY with 500 ug/mL unlabeled LDL on HEK293 cells transfected with LDLR mRNA.
The target is the same in experiment [8]. Put plainly: flow cytometry competition; 0.5 ug/mL LDL-BODIPY with 0.01 ug/mL unlabeled LDL on HEK293 cells transfected with LDLR mRNA.

Sequence of wild type (WT) human low density lipoprotein receptor (LDLR) (human) (P01130 22-860 limits assumed): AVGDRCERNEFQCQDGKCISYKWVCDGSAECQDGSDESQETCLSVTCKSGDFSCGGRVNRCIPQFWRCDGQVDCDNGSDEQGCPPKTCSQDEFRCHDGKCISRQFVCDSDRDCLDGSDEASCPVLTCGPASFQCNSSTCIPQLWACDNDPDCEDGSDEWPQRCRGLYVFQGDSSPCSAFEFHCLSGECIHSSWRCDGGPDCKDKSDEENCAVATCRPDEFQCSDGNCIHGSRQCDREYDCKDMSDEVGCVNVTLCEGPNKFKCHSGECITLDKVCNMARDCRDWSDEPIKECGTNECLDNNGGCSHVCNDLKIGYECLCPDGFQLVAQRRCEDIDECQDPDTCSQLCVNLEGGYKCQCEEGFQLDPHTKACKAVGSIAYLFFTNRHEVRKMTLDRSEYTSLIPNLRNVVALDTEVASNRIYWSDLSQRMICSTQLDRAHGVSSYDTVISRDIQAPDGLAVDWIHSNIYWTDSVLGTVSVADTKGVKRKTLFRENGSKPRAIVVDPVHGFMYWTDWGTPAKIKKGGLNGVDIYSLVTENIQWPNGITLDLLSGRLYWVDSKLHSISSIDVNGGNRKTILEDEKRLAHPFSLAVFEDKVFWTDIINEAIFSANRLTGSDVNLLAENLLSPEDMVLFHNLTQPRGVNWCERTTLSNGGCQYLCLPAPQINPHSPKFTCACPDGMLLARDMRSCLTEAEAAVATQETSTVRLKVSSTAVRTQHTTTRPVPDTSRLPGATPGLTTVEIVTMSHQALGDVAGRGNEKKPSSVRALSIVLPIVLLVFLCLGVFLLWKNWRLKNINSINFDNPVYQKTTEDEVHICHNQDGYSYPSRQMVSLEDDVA

As for “unlabeled LDL (low density lipoprotein), P04114 28-4563”, the Labeled cells detected (%) in experiment [1] came to 100%; in experiment [2], 76%; in experiment [3], 48.4%; in experiment [4], 59%; in experiment [5] it was 64.1%; in experiment [6], 3.2%. For the same substance, the Labeled cells detected (%) stood at 0.9% in experiment [7] and 97.7% in experiment [8].
